Assay results from the supplement of paper PMC10567573.

B1: EIF5 (parent)
chain: KQTIGNSCKACGYRGMLDTHHKLC
B2: TFE3 (parent)
chain: FPSDHLGDLGDPFHLGLEDILMEE

Variants of: B1
Experiment: protein stability index of a GFP-peptide fusion (GPS, HEK-293T) (PSI 1-6); higher = more stable
Conditions: c terminus: a fixed tail appended
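Further: lentivirally expressed fusions sorted by FACS into six bins by GFP to DsRed ratio, PSI derived from sequencing read proportions per bin multiplied by bin number.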

| Variant | protein stability index |
| --- | --- |
| KQTIGNSCKACGYRGMLDTHHKWC [L23W] | 3.91 |
| KQTIGNSCKACGYRGMLDTHHKYC [L23Y] | 3.89 |
| KQTIGNSCKACGYRGMLDTHHKLA [C24A] | 1.99 |
| KQTIGNSCKACGYRGMLDTHHKLD [C24D] | 2.25 |
| KQTIGNSCKACGYRGMLDTHHKLE [C24E] | 2.11 |
| KQTIGNSCKACGYRGMLDTHHKLF [C24F] | 2.24 |
| KQTIGNSCKACGYRGMLDTHHKLG [C24G] | 1.63 |
| KQTIGNSCKACGYRGMLDTHHKLH [C24H] | 1.9 |
| KQTIGNSCKACGYRGMLDTHHKLI [C24I] | 2.07 |
| KQTIGNSCKACGYRGMLDTHHKLK [C24K] | 2.15 |
| KQTIGNSCKACGYRGMLDTHHKLL [C24L] | 1.92 |
| KQTIGNSCKACGYRGMLDTHHKLM [C24M] | 2.81 |
| KQTIGNSCKACGYRGMLDTHHKLN [C24N] | 1.91 |
| KQTIGNSCKACGYRGMLDTHHKLP [C24P] | 1.81 |
| KQTIGNSCKACGYRGMLDTHHKLQ [C24Q] | 2.22 |
| KQTIGNSCKACGYRGMLDTHHKLR [C24R] | 1.38 |
| KQTIGNSCKACGYRGMLDTHHKLS [C24S] | 1.89 |
| KQTIGNSCKACGYRGMLDTHHKLT [C24T] | 1.57 |
| KQTIGNSCKACGYRGMLDTHHKLV [C24V] | 2.35 |
| KQTIGNSCKACGYRGMLDTHHKLW [C24W] | 2.21 |
| KQTIGNSCKACGYRGMLDTHHKLY [C24Y] | 1.7 |

Variants of: B2
Experiment: as above
Conditions: c terminus: a fixed tail appended

| Variant | protein stability index |
| --- | --- |
| APSDHLGDLGDPFHLGLEDILMEE [F1A] | 5.42 |
| CPSDHLGDLGDPFHLGLEDILMEE [F1C] | 5.03 |
| DPSDHLGDLGDPFHLGLEDILMEE [F1D] | 4.84 |
| EPSDHLGDLGDPFHLGLEDILMEE [F1E] | 4.96 |
| GPSDHLGDLGDPFHLGLEDILMEE [F1G] | 5.12 |
| HPSDHLGDLGDPFHLGLEDILMEE [F1H] | 4.7 |
| IPSDHLGDLGDPFHLGLEDILMEE [F1I] | 4.61 |
| KPSDHLGDLGDPFHLGLEDILMEE [F1K] | 4.41 |
| LPSDHLGDLGDPFHLGLEDILMEE [F1L] | 4.55 |
| MPSDHLGDLGDPFHLGLEDILMEE [F1M] | 4.82 |
| NPSDHLGDLGDPFHLGLEDILMEE [F1N] | 4.91 |
| PPSDHLGDLGDPFHLGLEDILMEE [F1P] | 5.13 |
| QPSDHLGDLGDPFHLGLEDILMEE [F1Q] | 4.57 |
| RPSDHLGDLGDPFHLGLEDILMEE [F1R] | 4.64 |
| SPSDHLGDLGDPFHLGLEDILMEE [F1S] | 5.1 |
| TPSDHLGDLGDPFHLGLEDILMEE [F1T] | 4.74 |
| VPSDHLGDLGDPFHLGLEDILMEE [F1V] | 4.88 |
| WPSDHLGDLGDPFHLGLEDILMEE [F1W] | 4.36 |
| YPSDHLGDLGDPFHLGLEDILMEE [F1Y] | 3.3 |
| FASDHLGDLGDPFHLGLEDILMEE [P2A] | 2.62 |
| FCSDHLGDLGDPFHLGLEDILMEE [P2C] | 2.57 |
| FDSDHLGDLGDPFHLGLEDILMEE [P2D] | 3.95 |
| FESDHLGDLGDPFHLGLEDILMEE [P2E] | 4.51 |
| FFSDHLGDLGDPFHLGLEDILMEE [P2F] | 2.83 |
| FGSDHLGDLGDPFHLGLEDILMEE [P2G] | 3.62 |

| Variant | protein stability index |
| --- | --- |
| FHSDHLGDLGDPFHLGLEDILMEE [P2H] | 1.84 |
| FISDHLGDLGDPFHLGLEDILMEE [P2I] | 2.12 |
| FKSDHLGDLGDPFHLGLEDILMEE [P2K] | 3.97 |
| FLSDHLGDLGDPFHLGLEDILMEE [P2L] | 3.37 |
| FMSDHLGDLGDPFHLGLEDILMEE [P2M] | 3.25 |
| FNSDHLGDLGDPFHLGLEDILMEE [P2N] | 4.24 |
| FQSDHLGDLGDPFHLGLEDILMEE [P2Q] | 2.63 |
| FRSDHLGDLGDPFHLGLEDILMEE [P2R] | 3.52 |
| FSSDHLGDLGDPFHLGLEDILMEE [P2S] | 3.96 |
| FTSDHLGDLGDPFHLGLEDILMEE [P2T] | 2.74 |
| FVSDHLGDLGDPFHLGLEDILMEE [P2V] | 1.5 |
| FWSDHLGDLGDPFHLGLEDILMEE [P2W] | 2.04 |
| FYSDHLGDLGDPFHLGLEDILMEE [P2Y] | 3 |
| FPADHLGDLGDPFHLGLEDILMEE [S3A] | 2.85 |
| FPCDHLGDLGDPFHLGLEDILMEE [S3C] | 2.46 |
| FPDDHLGDLGDPFHLGLEDILMEE [S3D] | 4.07 |
| FPEDHLGDLGDPFHLGLEDILMEE [S3E] | 3.97 |
| FPFDHLGDLGDPFHLGLEDILMEE [S3F] | 2.29 |
| FPGDHLGDLGDPFHLGLEDILMEE [S3G] | 2.97 |
| FPHDHLGDLGDPFHLGLEDILMEE [S3H] | 2.91 |
| FPIDHLGDLGDPFHLGLEDILMEE [S3I] | 3.02 |
| FPKDHLGDLGDPFHLGLEDILMEE [S3K] | 2.67 |
| FPLDHLGDLGDPFHLGLEDILMEE [S3L] | 3.04 |
| FPMDHLGDLGDPFHLGLEDILMEE [S3M] | 2.59 |
| FPNDHLGDLGDPFHLGLEDILMEE [S3N] | 3.16 |

| Variant | protein stability index |
| --- | --- |
| FPPDHLGDLGDPFHLGLEDILMEE [S3P] | 3.79 |
| FPQDHLGDLGDPFHLGLEDILMEE [S3Q] | 3.57 |
| FPRDHLGDLGDPFHLGLEDILMEE [S3R] | 2.6 |
| FPTDHLGDLGDPFHLGLEDILMEE [S3T] | 2.9 |
| FPVDHLGDLGDPFHLGLEDILMEE [S3V] | 2.56 |
| FPWDHLGDLGDPFHLGLEDILMEE [S3W] | 2.2 |
| FPYDHLGDLGDPFHLGLEDILMEE [S3Y] | 2.45 |
| FPSAHLGDLGDPFHLGLEDILMEE [D4A] | 2.26 |
| FPSCHLGDLGDPFHLGLEDILMEE [D4C] | 2.33 |
| FPSEHLGDLGDPFHLGLEDILMEE [D4E] | 3.77 |
| FPSFHLGDLGDPFHLGLEDILMEE [D4F] | 2.75 |
| FPSGHLGDLGDPFHLGLEDILMEE [D4G] | 2.49 |
| FPSHHLGDLGDPFHLGLEDILMEE [D4H] | 1.91 |
| FPSIHLGDLGDPFHLGLEDILMEE [D4I] | 2.76 |
| FPSKHLGDLGDPFHLGLEDILMEE [D4K] | 1.87 |
| FPSLHLGDLGDPFHLGLEDILMEE [D4L] | 2.37 |
| FPSMHLGDLGDPFHLGLEDILMEE [D4M] | 2.77 |
| FPSNHLGDLGDPFHLGLEDILMEE [D4N] | 3.22 |
| FPSPHLGDLGDPFHLGLEDILMEE [D4P] | 3.11 |
| FPSQHLGDLGDPFHLGLEDILMEE [D4Q] | 3.03 |
| FPSRHLGDLGDPFHLGLEDILMEE [D4R] | 2.04 |
| FPSSHLGDLGDPFHLGLEDILMEE [D4S] | 2.51 |
| FPSTHLGDLGDPFHLGLEDILMEE [D4T] | 2.35 |
